# Reference: PMC7515910, “Functional genetic encoding of sulfotyrosine in mammalian cells” (Nature Communications, 2020)
# Biological target: the molecule itself
# Assay: crystal structure; sTyrRS (a.a. 1-322, 9 mg/mL) with 2 mM sulfotyrosine; sitting drop vapor diffusion at 15 °C; ammonium sulfate (2.2 M), PEG 400 (2.5-3%), HEPES (0.1 M, pH 7.5); 1.78 Å
protein,measurement,value
"evolved sTyrRS amino acid activation domain (a.a. 1-322) (enzyme, E. coli, UniProt P0AGJ9 1-322, looked up, Y37 unchanged; Crystallised in complex with the small molecule sulfotyrosine (2 mM); also called sTyrRS (1-322); sTyrRS1-322; source: E. coli BL21(DE3), purified (Ni resin, Ulp1 cleavage, Superdex 200 gel filtration); not shown: 6xHis, N-terminal, cleaved; SUMO, N-terminal, cleaved) MASSNLIKQLQERGLVAQVTDEEALAERLAQGPIALYCGFDPTADSLHLGHLVPLLCLKRFQQAGHKPVAVVGGATGLIGDPSFKAAERKLNTEETVQEWVDKIRKQVAPFLDFDCGENSAIAANNYDFFGNMNVLTFLRDIGKHFSVNQMINKEAVKQRLNREDQGISFTEFSYNLLQGYGFACLNKQYGVVLQIGGSDQWGNITSGIDLTRRLHQNQVFGLTVPLITKADGTKFGKTEGGAVWLDPKKTSPYKFYQFWINTADADVYRFLKFFTFMSIEEINALEEEDKNSGKAPRAQYVLAEQVTRLVHGEEGLQAAKR",stoichiometry N,2
